Reference: article PMC6856128 (Scientific Reports, 2019)

Molecular target: the molecule itself
Assay: SEC

B1: Mycobacterium tuberculosis CysA2 (enzyme)
chain: MARCDVLVSADWAESNLHAPKVVFVEVDEDTSAYDRDHIAGAIKLDWRTDLQDPVKRDFVDAQQFSKLLSERGIANEDTVILYGGNNNWFAAYAYWYFKLYGHEKVKLLDGGRKKWELDGRPLSSDPVSRPVTSYTASPPDNTIRAFRDEVLAAINVKNLIDVRSPDEFSGKILAPAHLPQEQSQRPGHIPGAINVPWSRAANEDGTFKSDEELAKLYADAGLDNSKETIAYCRIGERSSHTWFVLRELLGHQNVKNYDGSWTEYGSLVGAPIELGS
- stoichiometry N: 2
